From the supplement of paper PMC9112550, “Optimization of the antimicrobial peptide Bac7 by deep mutational scanning” (BMC Biology, 2022)

Test system: Escherichia coli TOP10
Test: shrunken log2 fold change of peptide-encoding DNA abundance (4.5 h post-induction vs induction); higher = less antimicrobial activity (less host growth inhibition)
Details: time post-induction: 4.5 h; library: site-saturation at positions 5, 18, 19, 20
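Also: peptides expressed intracellularly from a pBAD plasmid library in pooled LB shake-flask culture, induced with 0.3% L-arabinose, DNA abundance read by NGS, three biological replicates, DESeq2 with apeglm shrinkage.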

| Sequence | shrunken log2 fold change |
| --- | --- |
| RRIRLRPPRLPRPRPRPFAPPRP | 0.263 |
| RRIRARPPRLPRPRPRPHMAPRP | -0.183 |
| RRIRCRPPRLPRPRPRPRWAPRP | 0.453 |
| RRIRSRPPRLPRPRPRPAEMPRP | 0.125 |
| RRIRRRPPRLPRPRPRPHEGPRP | 0.28 |
| RRIRSRPPRLPRPRPRPGALPRP | 0.324 |
| RRIRPRPPRLPRPRPRPRMIPRP | 0.0799 |
| RRIRIRPPRLPRPRPRPDNVPRP | 0.0156 |
| RRIRERPPRLPRPRPRPVITPRP | -0.145 |
| RRIRGRPPRLPRPRPRPSALPRP | 1.38 |
| RRIRARPPRLPRPRPRPNFHPRP | 0.0254 |
| RRIRARPPRLPRPRPRPKWIPRP | 0.0218 |
| RRIRHRPPRLPRPRPRPAVNPRP | -0.0508 |
| RRIRTRPPRLPRPRPRPDKYPRP | -0.147 |
| RRIRLRPPRLPRPRPRPSFVPRP | -0.392 |
| RRIRNRPPRLPRPRPRPRKKPRP | 0.163 |
| RRIRDRPPRLPRPRPRPSNMPRP | -0.0872 |
| RRIRSRPPRLPRPRPRPCKFPRP | -0.301 |
| RRIRPRPPRLPRPRPRPQNSPRP | -0.469 |
| RRIRHRPPRLPRPRPRPYCLPRP | -0.524 |
| RRIRPRPPRLPRPRPRPIHKPRP | -0.561 |
| RRIRARPPRLPRPRPRPGKGPRP | 0.158 |

| Sequence | shrunken log2 fold change |
| --- | --- |
| RRIRHRPPRLPRPRPRPISNPRP | -0.779 |
| RRIRMRPPRLPRPRPRPQHMPRP | -0.355 |
| RRIRLRPPRLPRPRPRPLRPPRP | 0.525 |
| RRIRWRPPRLPRPRPRPYTEPRP | -0.118 |
| RRIRVRPPRLPRPRPRPNHQPRP | -0.221 |
| RRIRVRPPRLPRPRPRPPKCPRP | -0.173 |
| RRIRVRPPRLPRPRPRPEQWPRP | 0.149 |
| RRIRIRPPRLPRPRPRPAYYPRP | -0.401 |
| RRIRARPPRLPRPRPRPSPRPRP | 0.818 |
| RRIRSRPPRLPRPRPRPLPNPRP | -0.215 |
| RRIRGRPPRLPRPRPRPNWYPRP | -0.0124 |
| RRIRTRPPRLPRPRPRPLENPRP | 0.0394 |
| RRIRMRPPRLPRPRPRPQCCPRP | 0.00357 |
| RRIRCRPPRLPRPRPRPNLTPRP | -0.162 |
| RRIRMRPPRLPRPRPRPHGYPRP | 0.185 |
| RRIRQRPPRLPRPRPRPDYGPRP | -0.159 |
| RRIRSRPPRLPRPRPRPLPEPRP | 0.278 |
| RRIRERPPRLPRPRPRPRLQPRP | 0.0143 |
| RRIRTRPPRLPRPRPRPDNAPRP | -0.223 |
| RRIRYRPPRLPRPRPRPSFDPRP | -1.2 |
| RRIRARPPRLPRPRPRPWKGPRP | 0.142 |
| RRIRGRPPRLPRPRPRPCLMPRP | 0.0827 |

| Sequence | shrunken log2 fold change |
| --- | --- |
| RRIRYRPPRLPRPRPRPMLYPRP | -0.877 |
| RRIRHRPPRLPRPRPRPNHFPRP | -0.262 |
| RRIRLRPPRLPRPRPRPAVVPRP | 0.028 |
| RRIRKRPPRLPRPRPRPDIEPRP | 2.53 |
| RRIRSRPPRLPRPRPRPASRPRP | 0.189 |
| RRIRSRPPRLPRPRPRPLGAPRP | 0.295 |
| RRIRLRPPRLPRPRPRPHTFPRP | -0.0496 |
| RRIRARPPRLPRPRPRPGRAPRP | 0.731 |
| RRIRPRPPRLPRPRPRPNKFPRP | -0.173 |
| RRIRLRPPRLPRPRPRPECRPRP | 2.41 |
| RRIRWRPPRLPRPRPRPFPCPRP | -0.0902 |
| RRIRPRPPRLPRPRPRPMAKPRP | 0.646 |
| RRIRIRPPRLPRPRPRPGMLPRP | 0.0213 |
| RRIRTRPPRLPRPRPRPYQKPRP | -0.197 |
| RRIRTRPPRLPRPRPRPTVQPRP | 0.0928 |
| RRIRCRPPRLPRPRPRPAICPRP | 0.0424 |
| RRIRTRPPRLPRPRPRPYKYPRP | -1.14 |
| RRIRKRPPRLPRPRPRPFDYPRP | -0.121 |
| RRIRHRPPRLPRPRPRPRRWPRP | -0.00291 |
| RRIRNRPPRLPRPRPRPMNFPRP | -0.0203 |
| RRIRRRPPRLPRPRPRPNRNPRP | 0.0469 |
| RRIRERPPRLPRPRPRPREIPRP | 0.214 |

| Sequence | shrunken log2 fold change |
| --- | --- |
| RRIRVRPPRLPRPRPRPTTMPRP | 0.00526 |
| RRIRERPPRLPRPRPRPPSCPRP | 0.103 |
| RRIRIRPPRLPRPRPRPTWIPRP | -0.415 |
| RRIRPRPPRLPRPRPRPRDWPRP | 0.531 |
| RRIRRRPPRLPRPRPRPCIDPRP | -0.211 |
| RRIRQRPPRLPRPRPRPAEYPRP | 0.0734 |
| RRIRKRPPRLPRPRPRPSQFPRP | 0.164 |
| RRIRVRPPRLPRPRPRPPVKPRP | -0.112 |
| RRIRTRPPRLPRPRPRPKFCPRP | 0.365 |
| RRIRLRPPRLPRPRPRPCFIPRP | 0.554 |
| RRIRARPPRLPRPRPRPHFTPRP | 0.345 |
| RRIRRRPPRLPRPRPRPERMPRP | 0.222 |
| RRIRVRPPRLPRPRPRPHDEPRP | 0.0655 |
| RRIRVRPPRLPRPRPRPATVPRP | -0.154 |
| RRIRFRPPRLPRPRPRPLCRPRP | -0.406 |
| RRIRHRPPRLPRPRPRPGNTPRP | -0.319 |
| RRIRARPPRLPRPRPRPWLEPRP | -0.0344 |
| RRIRDRPPRLPRPRPRPIPEPRP | -0.138 |
| RRIRYRPPRLPRPRPRPPRMPRP | -0.215 |
| RRIRMRPPRLPRPRPRPEMNPRP | 3.59 |
| RRIRGRPPRLPRPRPRPYFMPRP | -0.389 |
| RRIRDRPPRLPRPRPRPHCWPRP | 0.15 |

| Sequence | shrunken log2 fold change |
| --- | --- |
| RRIRYRPPRLPRPRPRPWNTPRP | -0.384 |
| RRIRHRPPRLPRPRPRPPVYPRP | 0.118 |
| RRIRTRPPRLPRPRPRPIPHPRP | -0.307 |
| RRIRERPPRLPRPRPRPHLQPRP | -0.206 |
| RRIRTRPPRLPRPRPRPQQQPRP | -0.0474 |
| RRIRHRPPRLPRPRPRPHMNPRP | -0.491 |
| RRIRQRPPRLPRPRPRPMFEPRP | 0.118 |
| RRIRDRPPRLPRPRPRPDHVPRP | -0.012 |
| RRIRYRPPRLPRPRPRPDQNPRP | -0.269 |
| RRIRQRPPRLPRPRPRPMYSPRP | -0.746 |
| RRIRPRPPRLPRPRPRPPCPPRP | 0.294 |
| RRIRHRPPRLPRPRPRPYEGPRP | -0.0203 |
| RRIRLRPPRLPRPRPRPQGFPRP | -0.0528 |
| RRIRDRPPRLPRPRPRPLGTPRP | 0.706 |
| RRIRFRPPRLPRPRPRPTRIPRP | 0.0179 |
| RRIRTRPPRLPRPRPRPIAWPRP | -0.104 |
| RRIRPRPPRLPRPRPRPPQTPRP | 0.362 |
| RRIRDRPPRLPRPRPRPKGAPRP | 0.368 |
| RRIRNRPPRLPRPRPRPYTEPRP | -0.695 |
| RRIRQRPPRLPRPRPRPINHPRP | 0.147 |
| RRIRFRPPRLPRPRPRPWIYPRP | -0.662 |
